For orientation: Kd means the constant that tells how readily two partners part at equilibrium.

The values that follow come from paper PMC11853025.

The target of assay [1] is iC3b (UniProt P01024). As to the kind of experiment: SPR; C3b deposited on a CM5 chip (amine-coupled seed, then convertase-mediated deposition to about 5000 RU), iC3b and C3dg made from it on the chip; αI domains injected as dilution series, 120 s; Biacore T200, 25 °C; HBST (10 mM HEPES, 150 mM NaCl, 0.005% Tween-20, pH 7.4) with 1 mM MgCl2; Langmuir 1:1 fit, KD calculated.

Assay [2] concerns the target iC3b (UniProt P01024). As to the kind of experiment: SPR; competitive: αI domains at 5 µM preincubated with simvastatin (3-100 µM), injected over immobilised iC3b or ICAM-1; HBST with 1 mM MgCl2 and 5% DMSO; signal as percent of the non-inhibited signal. For orientation: Surface plasmon resonance follows binding to a sensor surface in real time, without labels.
The target of assay [3] is ICAM-1 (recombinant, Sino Biological 10346-H03H) (UniProt P05362). The description is as above.
ICAM-1 (recombinant, Sino Biological 10346-H03H), sequence (P05362 28-480): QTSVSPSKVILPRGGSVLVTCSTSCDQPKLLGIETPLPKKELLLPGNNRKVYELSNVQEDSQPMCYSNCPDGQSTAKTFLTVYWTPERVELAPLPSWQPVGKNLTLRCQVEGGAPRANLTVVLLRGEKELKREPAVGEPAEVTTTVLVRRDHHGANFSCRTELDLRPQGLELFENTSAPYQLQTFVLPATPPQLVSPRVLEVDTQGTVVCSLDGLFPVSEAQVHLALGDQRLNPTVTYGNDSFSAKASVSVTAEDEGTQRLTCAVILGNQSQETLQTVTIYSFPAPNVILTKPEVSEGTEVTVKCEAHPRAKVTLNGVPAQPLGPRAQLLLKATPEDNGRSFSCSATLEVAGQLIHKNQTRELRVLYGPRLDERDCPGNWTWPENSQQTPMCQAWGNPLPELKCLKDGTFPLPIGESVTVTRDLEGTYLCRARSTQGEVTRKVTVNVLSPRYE

“CR3 αMI domain, high-affinity (HA) variant p.I332G (from UniProt P11215 146-334) (domain or fragment)”: the Kd in assay [1] was 1.8 µM. For the same substance, the residual binding activity with simvastatin (percent of the non-inhibited signal) in assay [2] is 77%.

With “CR3 αMI domain, wild type (WT) (from UniProt P11215 146-334) (domain or fragment)”, in assay [1], the dissociation constant Kd is 15 µM.

As to “LFA-1 αLI domain, high-affinity (HA) variant p.K312C/K319C (domain or fragment)”, the residual binding activity with simvastatin (percent of the non-inhibited signal) in assay [3] is 83%.
